B1: Retinoic acid receptor RXR-alpha, residues 132 to 208; numbered along this chain, P19793 (parent)
chain: KHICAICGDRSSGKHYGVYSCEGCKGFFKRTVRKDLTYTCRDNKDCLIDKRQRNRCQYCRYQKCLAMGMKREAVQEE

± gives the uncertainty stated by the source.

In the data set the parent is B1. The data set is described as follows: abundance fitness (aPCA) (normalised: wild type 0, dead -1); higher = more abundant; growth selection in yeast, the domain comes from the species named. To be noted: Homo sapiens.
On to KHICAICGDRSSGKHYGVYSCEGCKWFFKRTVRKDLTYTCRDNKDCLIDKRQRNRCQYCRYQKCLAMGMKREAVQEE [G26W], for which the abundance fitness was -0.052 ± 0.04.
KHICAICGDRSSGKHYGVYSCEGCKFFFKRTVRKDLTYTCRDNKDCLIDKRQRNRCQYCRYQKCLAMGMKREAVQEE [G26F]: the abundance fitness was -0.138 ± 0.043.
In the case of KHICAICGDRSSGKHYGVYSCEGCKCFFKRTVRKDLTYTCRDNKDCLIDKRQRNRCQYCRYQKCLAMGMKREAVQEE [G26C], the abundance fitness was -0.077 ± 0.041.
KHICAICGDRSSGKHYGVYSCEGCKVFFKRTVRKDLTYTCRDNKDCLIDKRQRNRCQYCRYQKCLAMGMKREAVQEE [G26V]: the abundance fitness stood at 0.007 ± 0.03.
Regarding KHICAICGDRSSGKHYGVYSCEGCKMFFKRTVRKDLTYTCRDNKDCLIDKRQRNRCQYCRYQKCLAMGMKREAVQEE [G26M], the abundance fitness is -0.071 ± 0.035.
For KHICAICGDRSSGKHYGVYSCEGCKHFFKRTVRKDLTYTCRDNKDCLIDKRQRNRCQYCRYQKCLAMGMKREAVQEE [G26H], the abundance fitness is -0.021 ± 0.044.
For KHICAICGDRSSGKHYGVYSCEGCKLFFKRTVRKDLTYTCRDNKDCLIDKRQRNRCQYCRYQKCLAMGMKREAVQEE [G26L], the abundance fitness was -0.132 ± 0.027.
Regarding KHICAICGDRSSGKHYGVYSCEGCKYFFKRTVRKDLTYTCRDNKDCLIDKRQRNRCQYCRYQKCLAMGMKREAVQEE [G26Y], the abundance fitness is -0.081 ± 0.042.
Next, KHICAICGDRSSGKHYGVYSCEGCKEFFKRTVRKDLTYTCRDNKDCLIDKRQRNRCQYCRYQKCLAMGMKREAVQEE [G26E]: -0.043 ± 0.048; KHICAICGDRSSGKHYGVYSCEGCKNFFKRTVRKDLTYTCRDNKDCLIDKRQRNRCQYCRYQKCLAMGMKREAVQEE [G26N]: -0.123 ± 0.04.
Next, KHICAICGDRSSGKHYGVYSCEGCKRFFKRTVRKDLTYTCRDNKDCLIDKRQRNRCQYCRYQKCLAMGMKREAVQEE [G26R]: -0.018 ± 0.027.
Next, KHICAICGDRSSGKHYGVYSCEGCKSFFKRTVRKDLTYTCRDNKDCLIDKRQRNRCQYCRYQKCLAMGMKREAVQEE [G26S]: -0.087 ± 0.029.
As to KHICAICGDRSSGKHYGVYSCEGCKAFFKRTVRKDLTYTCRDNKDCLIDKRQRNRCQYCRYQKCLAMGMKREAVQEE [G26A], the abundance fitness is 0.002 ± 0.033.
For KHICAICGDRSSGKHYGVYSCEGCKDFFKRTVRKDLTYTCRDNKDCLIDKRQRNRCQYCRYQKCLAMGMKREAVQEE [G26D], the abundance fitness is 0.024 ± 0.04.
As for KHICAICGDRSSGKHYGVYSCEGCKPFFKRTVRKDLTYTCRDNKDCLIDKRQRNRCQYCRYQKCLAMGMKREAVQEE [G26P], the abundance fitness is -0.503 ± 0.058.
Regarding KHICAICGDRSSGKHYGVYSCEGCKQFFKRTVRKDLTYTCRDNKDCLIDKRQRNRCQYCRYQKCLAMGMKREAVQEE [G26Q], the abundance fitness stood at 0.038 ± 0.035.
Turning to KHICAICGDRSSGKHYGVYSCEGCKIFFKRTVRKDLTYTCRDNKDCLIDKRQRNRCQYCRYQKCLAMGMKREAVQEE [G26I], the abundance fitness is -0.116 ± 0.05.
As for KHICAICGDRSSGKHYGVYSCEGCKGFLKRTVRKDLTYTCRDNKDCLIDKRQRNRCQYCRYQKCLAMGMKREAVQEE [F28L], the abundance fitness is -0.316 ± 0.039.
Take KHICAICGDRSSGKHYGVYSCEGCKGFCKRTVRKDLTYTCRDNKDCLIDKRQRNRCQYCRYQKCLAMGMKREAVQEE [F28C]: the abundance fitness is -0.753 ± 0.14.
Take KHICAICGDRSSGKHYGVYSCEGCKGFMKRTVRKDLTYTCRDNKDCLIDKRQRNRCQYCRYQKCLAMGMKREAVQEE [F28M]: the abundance fitness amounted to 0.024 ± 0.064.
For KHICAICGDRSSGKHYGVYSCEGCKGFPKRTVRKDLTYTCRDNKDCLIDKRQRNRCQYCRYQKCLAMGMKREAVQEE [F28P], the abundance fitness was -0.906 ± 0.14.
With KHICAICGDRSSGKHYGVYSCEGCKGFVKRTVRKDLTYTCRDNKDCLIDKRQRNRCQYCRYQKCLAMGMKREAVQEE [F28V], the abundance fitness is -0.321 ± 0.037.
On to KHICAICGDRSSGKHYGVYSCEGCKGFRKRTVRKDLTYTCRDNKDCLIDKRQRNRCQYCRYQKCLAMGMKREAVQEE [F28R], for which the abundance fitness is -0.917 ± 0.064.
In the case of KHICAICGDRSSGKHYGVYSCEGCKGFNKRTVRKDLTYTCRDNKDCLIDKRQRNRCQYCRYQKCLAMGMKREAVQEE [F28N], the abundance fitness is -0.653 ± 0.16.
On to KHICAICGDRSSGKHYGVYSCEGCKGFTKRTVRKDLTYTCRDNKDCLIDKRQRNRCQYCRYQKCLAMGMKREAVQEE [F28T], for which the abundance fitness is -0.894 ± 0.12.
On to KHICAICGDRSSGKHYGVYSCEGCKGFKKRTVRKDLTYTCRDNKDCLIDKRQRNRCQYCRYQKCLAMGMKREAVQEE [F28K], for which the abundance fitness was -1.13 ± 0.2.
Consider KHICAICGDRSSGKHYGVYSCEGCKGFWKRTVRKDLTYTCRDNKDCLIDKRQRNRCQYCRYQKCLAMGMKREAVQEE [F28W], for which the abundance fitness was -0.024 ± 0.036.
For KHICAICGDRSSGKHYGVYSCEGCKGFIKRTVRKDLTYTCRDNKDCLIDKRQRNRCQYCRYQKCLAMGMKREAVQEE [F28I], the abundance fitness is -0.289 ± 0.078.
Regarding KHICAICGDRSSGKHYGVYSCEGCKGFHKRTVRKDLTYTCRDNKDCLIDKRQRNRCQYCRYQKCLAMGMKREAVQEE [F28H], the abundance fitness is -0.495 ± 0.12.
For KHICAICGDRSSGKHYGVYSCEGCKGFAKRTVRKDLTYTCRDNKDCLIDKRQRNRCQYCRYQKCLAMGMKREAVQEE [F28A], the abundance fitness is -0.49 ± 0.047.
Under KHICAICGDRSSGKHYGVYSCEGCKGFDKRTVRKDLTYTCRDNKDCLIDKRQRNRCQYCRYQKCLAMGMKREAVQEE [F28D] stands -0.57 ± 0.088.
For KHICAICGDRSSGKHYGVYSCEGCKGFSKRTVRKDLTYTCRDNKDCLIDKRQRNRCQYCRYQKCLAMGMKREAVQEE [F28S], the abundance fitness is -0.824 ± 0.087.
With KHICAICGDRSSGKHYGVYSCEGCKGFEKRTVRKDLTYTCRDNKDCLIDKRQRNRCQYCRYQKCLAMGMKREAVQEE [F28E], the abundance fitness was -0.289 ± 0.048.
Consider KHICAICGDRSSGKHYGVYSCEGCKGSFKRTVRKDLTYTCRDNKDCLIDKRQRNRCQYCRYQKCLAMGMKREAVQEE [F27S], for which the abundance fitness was 0.004 ± 0.31.
In the case of KHICAICGDRSSGKHYGVYSCEGYKGFFKRTVRKDLTYTCRDNKDCLIDKRQRNRCQYCRYQKCLAMGMKREAVQEE [C24Y], the abundance fitness is -1.09 ± 0.12.
KHICAICGDRSSGKHYGVYSCEGWKGFFKRTVRKDLTYTCRDNKDCLIDKRQRNRCQYCRYQKCLAMGMKREAVQEE [C24W]: the abundance fitness was -1.01 ± 0.076.

Source of the values: the Human Domainome abundance scans (Beltran et al. 2025).
